B1: TPTE2 peptide 92-107 (Phosphatidylinositol 3,4,5-trisphosphate 3-phosphatase TPTE2), 16-mer library wild type / TLN1 PTB (TLN1 Phosphotyrosine-binding (PTB) domain, residues 309-401) (parent complex)
chain 1: LADLIFTDSKLYIPLE
chain 2: GVSFFLVKEKMKGKNKLVPRLLGITKECVMRVDEKTKEVIQEWNLTNIKRWAASPKSFTLDFGDYQDGYYSVQTTEGEQIAQLIAGYIDIILK
B2: AMOTL2 peptide 66-81 (Angiomotin-like protein 2), 16-mer library wild type / TNKS ANK (TNKS 12 ANK repeats, residues 174-649) (parent complex)
chain 1: LQQATRQEPQGQEHQG
chain 2: TGVPAVSGALRELLEACRNGDVSRVKRLVDAANVNAKDMAGRKSSPLHFAAGFGRKDVVEHLLQMGANVHARDDGGLIPLHNACSFGHAEVVSLLLCQGADPNARDNWNYTPLHEAAIKGKIDVCIVLLQHGADPNIRNTDGKSALDLADPSAKAVLTGEYKKDELLEAARSGNEEKLMALLTPLNVNCHASDGRKSTPLHLAAGYNRVRIVQLLLQHGADVHAKDKGGLVPLHNACSYGHYEVTELLLKHGACVNAMDLWQFTPLHEAASKNRVEVCSLLLSHGADPTLVNCHGKSAVDMAPTPELRERLTYEFKGHSLLQAAREADLAKVKKTLALEIINFKQPQSHETALHCAVASLHPKRKQVTELLLRKGANVNEKNKDFMTPLHVAAERAHNDVMEVLHKHGAKMNALDTLGQTALHRAALAGHLQTCRLLLSYGSDPSIISLQGFTAAQMGNEAVQQILSESTPIRTSD

Variants of: B1
Test: proteomic peptide phage display deep mutational scan (ProP-PD DMS): M13 P8 16-mer library selected against immobilised GST-tagged bait for four days (rounds), NGS of the eluted pools per day and pseudo-replica; bait immobilised on MaxiSorp plates (10 µg), library pre-cleared on GST, 2 h binding at 4 °C, five washes; one round per day, days 1-4; value from days 2 and 3

Compared with chain 1 A2T, chain 1 A2G is lower in screen value: 0.00695 average fractional NGS count over selection days 2 and 3 (reads of this peptide / all reads for the bait, averaged over … for the first, 0.00214 average fractional NGS count over selection days 2 and 3 (reads of this peptide / all reads for the bait, averaged over … for the second.

Compared with chain 1 A2P, chain 1 A2K is higher in screen value: 0.000416 average fractional NGS count over selection days 2 and 3 (reads of this peptide / all reads for the bait, averaged over … for the first, 0.000711 average fractional NGS count over selection days 2 and 3 (reads of this peptide / all reads for the bait, averaged over … for the second.

First: chain 1 A2H
Second: chain 1 A2E
The screen value of the first is higher: 0.00143 average fractional NGS count over selection days 2 and 3 (reads of this peptide / all reads for the bait, averaged over … for the first, 0.000377 average fractional NGS count over selection days 2 and 3 (reads of this peptide / all reads for the bait, averaged over … for the second.

Compared with chain 1 L11G, chain 1 L11H is lower in screen value: 0.000473 average fractional NGS count over selection days 2 and 3 (reads of this peptide / all reads for the bait, averaged over … for the first, 0.000165 average fractional NGS count over selection days 2 and 3 (reads of this peptide / all reads for the bait, averaged over … for the second.

Compared with chain 1 L11V, chain 1 L11M is lower in screen value: 0.00254 average fractional NGS count over selection days 2 and 3 (reads of this peptide / all reads for the bait, averaged over … for the first, 0.000677 average fractional NGS count over selection days 2 and 3 (reads of this peptide / all reads for the bait, averaged over … for the second.

First: chain 1 S9N
Second: chain 1 D8P
The screen value of the first is higher: 0.00167 average fractional NGS count over selection days 2 and 3 (reads of this peptide / all reads for the bait, averaged over … for the first, 0.000129 average fractional NGS count over selection days 2 and 3 (reads of this peptide / all reads for the bait, averaged over … for the second.

Going from chain 1 D8N to chain 1 D8Y, the screen value falls from 0.00152 average fractional NGS count over selection days 2 and 3 (reads of this peptide / all reads for the bait, averaged over … to 0.000841 average fractional NGS count over selection days 2 and 3 (reads of this peptide / all reads for the bait, averaged over ….

First: chain 1 D8A
Second: chain 1 L4Y
The screen value of the first is lower: 0.000152 average fractional NGS count over selection days 2 and 3 (reads of this peptide / all reads for the bait, averaged over … for the first, 0.00693 average fractional NGS count over selection days 2 and 3 (reads of this peptide / all reads for the bait, averaged over … for the second.

First: chain 1 L4I
Second: chain 1 L4A
The screen value of the first is higher: 0.00221 average fractional NGS count over selection days 2 and 3 (reads of this peptide / all reads for the bait, averaged over … for the first, 0.000153 average fractional NGS count over selection days 2 and 3 (reads of this peptide / all reads for the bait, averaged over … for the second.

Compared with chain 1 L4G, chain 1 L4P is higher in screen value: 0.000192 average fractional NGS count over selection days 2 and 3 (reads of this peptide / all reads for the bait, averaged over … for the first, 0.000281 average fractional NGS count over selection days 2 and 3 (reads of this peptide / all reads for the bait, averaged over … for the second.

First: chain 1 L4T
Second: chain 1 L4Q
The screen value of the first is higher: 0.00113 average fractional NGS count over selection days 2 and 3 (reads of this peptide / all reads for the bait, averaged over … for the first, 0.000755 average fractional NGS count over selection days 2 and 3 (reads of this peptide / all reads for the bait, averaged over … for the second.

First: chain 1 L4V
Second: chain 1 L4F
The screen value of the first is higher: 0.0013 average fractional NGS count over selection days 2 and 3 (reads of this peptide / all reads for the bait, averaged over … for the first, 0.000915 average fractional NGS count over selection days 2 and 3 (reads of this peptide / all reads for the bait, averaged over … for the second.

First: chain 1 K10H
Second: chain 1 K10F
The screen value of the first is higher: 0.00033 average fractional NGS count over selection days 2 and 3 (reads of this peptide / all reads for the bait, averaged over … for the first, 0.000223 average fractional NGS count over selection days 2 and 3 (reads of this peptide / all reads for the bait, averaged over … for the second.

Compared with chain 1 K10M, chain 1 K10R is lower in screen value: 0.0107 average fractional NGS count over selection days 2 and 3 (reads of this peptide / all reads for the bait, averaged over … for the first, 0.00219 average fractional NGS count over selection days 2 and 3 (reads of this peptide / all reads for the bait, averaged over … for the second.

Going from chain 1 K10N to chain 1 K10L, the screen value falls from 0.000537 average fractional NGS count over selection days 2 and 3 (reads of this peptide / all reads for the bait, averaged over … to 0.000166 average fractional NGS count over selection days 2 and 3 (reads of this peptide / all reads for the bait, averaged over ….

Going from chain 1 I5K to chain 1 I5M, the screen value rises from 0.000454 average fractional NGS count over selection days 2 and 3 (reads of this peptide / all reads for the bait, averaged over … to 0.000604 average fractional NGS count over selection days 2 and 3 (reads of this peptide / all reads for the bait, averaged over ….

First: chain 1 I5D
Second: chain 1 I5P
The screen value of the first is higher: 0.0016 average fractional NGS count over selection days 2 and 3 (reads of this peptide / all reads for the bait, averaged over … for the first, 0.000122 average fractional NGS count over selection days 2 and 3 (reads of this peptide / all reads for the bait, averaged over … for the second.

Compared with chain 1 L15K, chain 1 L15N is higher in screen value: 0.000159 average fractional NGS count over selection days 2 and 3 (reads of this peptide / all reads for the bait, averaged over … for the first, 0.000216 average fractional NGS count over selection days 2 and 3 (reads of this peptide / all reads for the bait, averaged over … for the second.

Compared with chain 1 L15W, chain 1 L15F is lower in screen value: 0.000732 average fractional NGS count over selection days 2 and 3 (reads of this peptide / all reads for the bait, averaged over … for the first, 0.000576 average fractional NGS count over selection days 2 and 3 (reads of this peptide / all reads for the bait, averaged over … for the second.

Going from chain 1 L15H to chain 1 L15V, the screen value rises from 0.00102 average fractional NGS count over selection days 2 and 3 (reads of this peptide / all reads for the bait, averaged over … to 0.0032 average fractional NGS count over selection days 2 and 3 (reads of this peptide / all reads for the bait, averaged over ….

Compared with chain 1 D3N, chain 1 D3T is higher in screen value: 0.000465 average fractional NGS count over selection days 2 and 3 (reads of this peptide / all reads for the bait, averaged over … for the first, 0.00148 average fractional NGS count over selection days 2 and 3 (reads of this peptide / all reads for the bait, averaged over … for the second.

First: chain 1 D3P
Second: chain 1 I13T
The screen value of the first is lower: 0.000181 average fractional NGS count over selection days 2 and 3 (reads of this peptide / all reads for the bait, averaged over … for the first, 0.000348 average fractional NGS count over selection days 2 and 3 (reads of this peptide / all reads for the bait, averaged over … for the second.

Compared with chain 1 I13V, chain 1 F6W is lower in screen value: 0.00758 average fractional NGS count over selection days 2 and 3 (reads of this peptide / all reads for the bait, averaged over … for the first, 0.000583 average fractional NGS count over selection days 2 and 3 (reads of this peptide / all reads for the bait, averaged over … for the second.

Going from chain 1 E16Q to chain 1 E16G, the screen value rises from 0.000507 average fractional NGS count over selection days 2 and 3 (reads of this peptide / all reads for the bait, averaged over … to 0.000982 average fractional NGS count over selection days 2 and 3 (reads of this peptide / all reads for the bait, averaged over ….

Going from chain 1 E16L to chain 1 T7Y, the screen value rises from 0.000229 average fractional NGS count over selection days 2 and 3 (reads of this peptide / all reads for the bait, averaged over … to 0.000282 average fractional NGS count over selection days 2 and 3 (reads of this peptide / all reads for the bait, averaged over ….

chain 1 T7W was tested, and the screen value was 0.000447 average fractional NGS count over selection days 2 and 3 (reads of this peptide / all reads for the bait, averaged over ….

Variants of: B2
Test: as above

First: chain 1 E8F
Second: chain 1 E8A
The screen value of the first is higher: 0.00124 average fractional NGS count over selection days 2 and 3 (reads of this peptide / all reads for the bait, averaged over … for the first, 0.000174 average fractional NGS count over selection days 2 and 3 (reads of this peptide / all reads for the bait, averaged over … for the second.

First: chain 1 E8H
Second: chain 1 E8D
The screen value of the first is higher: 0.000322 average fractional NGS count over selection days 2 and 3 (reads of this peptide / all reads for the bait, averaged over … for the first, 0.000313 average fractional NGS count over selection days 2 and 3 (reads of this peptide / all reads for the bait, averaged over … for the second.

Compared with chain 1 E8S, chain 1 E8Q is higher in screen value: 0.000226 average fractional NGS count over selection days 2 and 3 (reads of this peptide / all reads for the bait, averaged over … for the first, 0.000434 average fractional NGS count over selection days 2 and 3 (reads of this peptide / all reads for the bait, averaged over … for the second.

Going from chain 1 E8G to chain 1 Q12H, the screen value rises from 0.000387 average fractional NGS count over selection days 2 and 3 (reads of this peptide / all reads for the bait, averaged over … to 0.00103 average fractional NGS count over selection days 2 and 3 (reads of this peptide / all reads for the bait, averaged over ….

Compared with chain 1 Q12F, chain 1 Q12Y is higher in screen value: 0.000217 average fractional NGS count over selection days 2 and 3 (reads of this peptide / all reads for the bait, averaged over … for the first, 0.000541 average fractional NGS count over selection days 2 and 3 (reads of this peptide / all reads for the bait, averaged over … for the second.

First: chain 1 Q12L
Second: chain 1 Q12A
The screen value of the first is higher: 0.000442 average fractional NGS count over selection days 2 and 3 (reads of this peptide / all reads for the bait, averaged over … for the first, 0.000321 average fractional NGS count over selection days 2 and 3 (reads of this peptide / all reads for the bait, averaged over … for the second.

Going from chain 1 Q12W to chain 1 Q15E, the screen value rises from 0.000131 average fractional NGS count over selection days 2 and 3 (reads of this peptide / all reads for the bait, averaged over … to 0.000569 average fractional NGS count over selection days 2 and 3 (reads of this peptide / all reads for the bait, averaged over ….

Compared with chain 1 Q15H, chain 1 Q15I is higher in screen value: 0.00187 average fractional NGS count over selection days 2 and 3 (reads of this peptide / all reads for the bait, averaged over … for the first, 0.00255 average fractional NGS count over selection days 2 and 3 (reads of this peptide / all reads for the bait, averaged over … for the second.

Compared with chain 1 Q15F, chain 1 Q15S is higher in screen value: 0.000668 average fractional NGS count over selection days 2 and 3 (reads of this peptide / all reads for the bait, averaged over … for the first, 0.00112 average fractional NGS count over selection days 2 and 3 (reads of this peptide / all reads for the bait, averaged over … for the second.

Compared with chain 1 Q15T, chain 1 Q15P is lower in screen value: 0.000883 average fractional NGS count over selection days 2 and 3 (reads of this peptide / all reads for the bait, averaged over … for the first, 0.000799 average fractional NGS count over selection days 2 and 3 (reads of this peptide / all reads for the bait, averaged over … for the second.

First: chain 1 Q15Y
Second: chain 1 Q15M
The screen value of the first is higher: 0.00994 average fractional NGS count over selection days 2 and 3 (reads of this peptide / all reads for the bait, averaged over … for the first, 0.00112 average fractional NGS count over selection days 2 and 3 (reads of this peptide / all reads for the bait, averaged over … for the second.

Going from chain 1 Q15D to chain 1 Q15G, the screen value rises from 0.000198 average fractional NGS count over selection days 2 and 3 (reads of this peptide / all reads for the bait, averaged over … to 0.000723 average fractional NGS count over selection days 2 and 3 (reads of this peptide / all reads for the bait, averaged over ….

From paper PMC12102759 (2025)
